Source: patent US20230374147A1

Target: His-tagged mouse BCMA (Acro Biosystems, BCA-M52H3) (mouse) (UniProt O88472)
Assay: ELISA, hybridoma supernatant, coated His-tagged antigen

Sequence of His-tagged mouse BCMA (Acro Biosystems, BCA-M52H3) (mouse) (O88472 1-49 limits assumed): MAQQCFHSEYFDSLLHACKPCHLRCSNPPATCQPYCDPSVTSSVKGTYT

B1: 539-SP5-D7 (antibody produced by the hybridoma) (antibody, V domains shown)
VH: EVMLVDSGGNLVKPGGSLKLSCAASGFTFSNYVISWVRQTPEKRLEWVATISTVGTNTYYPDSVRGRFTISRDNAENTLYLQMSSLRSEDTAIYYCSRHKYGYDDPSYAMDYWGQGTSVTVSS
VL: QLVLTQSSSASFSLGASAKLTCTLSSQHSTYTIEWYQQQPLKPPKYVMELKKDGSHSTGDGIPDRFSGSSSGADRYLSISNIQAEDEAIYICGVGDTVKEQFVYVFGGGTKVTVL
B1 was tested, and the ELISA values (OD 450 nm) was 0.025 OD.
